Reference: IntAct's records for PubMed 15161910

B1: Serine/threonine-protein kinase Nek2 (Homo sapiens), P51955 (parent)
chain: MPSRAEDYEVLYTIGTGSYGRCQKIRRKSDGKILVWKELDYGSMTEAEKQMLVSEVNLLRELKHPNIVRYYDRIIDRTNTTLYIVMEYCEGGDLASVITKGTKERQYLDEEFVLRVMTQLTLALKECHRRSDGGHTVLHRDLKPANVFLDGKQNVKLGDFGLARILNHDTSFAKTFVGTPYYMSPEQMNRMSYNEKSDIWSLGCLLYELCALMPPFTAFSQKELAGKIREGKFRRIPYRYSDELNEIITRMLNLKDYHRPSVEEILENPLIADLVADEQRRNLERRGRQLGEPEKSQDSSPVLSELKLKEIQLQERERALKAREERLEQKEQELCVRERLAEDKLARAENLLKNYSLLKERKFLSLASNPELLNLPSSVIKKKVHFSGESKENIMRSENSESQLTSKSKCKDLKKRLHAAQLRAQALSDIEKNYQLKSRQILGMR
partner: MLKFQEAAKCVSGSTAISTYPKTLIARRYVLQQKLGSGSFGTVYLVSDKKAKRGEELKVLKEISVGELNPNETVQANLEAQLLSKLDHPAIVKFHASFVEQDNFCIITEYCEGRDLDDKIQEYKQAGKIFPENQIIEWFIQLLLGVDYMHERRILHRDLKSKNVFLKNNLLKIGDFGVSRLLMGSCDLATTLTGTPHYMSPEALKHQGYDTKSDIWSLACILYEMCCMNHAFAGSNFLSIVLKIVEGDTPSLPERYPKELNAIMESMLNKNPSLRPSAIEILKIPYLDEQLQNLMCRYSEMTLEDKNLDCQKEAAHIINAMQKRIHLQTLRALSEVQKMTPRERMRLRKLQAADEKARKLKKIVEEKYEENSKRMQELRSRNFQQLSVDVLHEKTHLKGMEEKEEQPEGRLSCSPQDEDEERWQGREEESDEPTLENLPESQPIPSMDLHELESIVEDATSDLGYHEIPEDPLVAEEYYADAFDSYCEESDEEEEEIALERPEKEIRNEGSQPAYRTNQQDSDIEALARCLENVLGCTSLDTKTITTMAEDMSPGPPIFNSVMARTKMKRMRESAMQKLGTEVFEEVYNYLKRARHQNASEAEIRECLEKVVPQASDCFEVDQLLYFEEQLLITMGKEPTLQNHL

Variants of: B1
Conditions: with nek11_human NEK11, Q8NG66

Row | Variant | effect of a mutation on the interaction
1 | MPSRAEDYEVLYTIGTGSYGRCQKIRRKSDGKILVWRELDYGSMTEAEKQMLVSEVNLLRELKHPNIVRYYDRIIDRTNTTLYIVMEYCEGGDLASVITKGTKERQYLDEEFVLRVMTQLTLALKECHRRSDGGHTVLHRDLKPANVFLDGKQNVKLGDFGLARILNHDTSFAKTFVGTPYYMSPEQMNRMSYNEKSDIWSLGCLLYELCALMPPFTAFSQKELAGKIREGKFRRIPYRYSDELNEIITRMLNLKDYHRPSVEEILENPLIADLVADEQRRNLERRGRQLGEPEKSQDSSPVLSELKLKEIQLQERERALKAREERLEQKEQELCVRERLAEDKLARAENLLKNYSLLKERKFLSLASNPELLNLPSSVIKKKVHFSGESKENIMRSENSESQLTSKSKCKDLKKRLHAAQLRAQALSDIEKNYQLKSRQILGMR [K37R] | decreasing interaction

Variants of: B1
Conditions: with nek11_human NEK11, Q8NG66
Remark: another data set of the same source

Row | Variant | effect of a mutation on the interaction
2 | MPSRAEDYEVLYTIGTGSYGRCQKIRRKSDGKILVWRELDYGSMTEAEKQMLVSEVNLLRELKHPNIVRYYDRIIDRTNTTLYIVMEYCEGGDLASVITKGTKERQYLDEEFVLRVMTQLTLALKECHRRSDGGHTVLHRDLKPANVFLDGKQNVKLGDFGLARILNHDTSFAKTFVGTPYYMSPEQMNRMSYNEKSDIWSLGCLLYELCALMPPFTAFSQKELAGKIREGKFRRIPYRYSDELNEIITRMLNLKDYHRPSVEEILENPLIADLVADEQRRNLERRGRQLGEPEKSQDSSPVLSELKLKEIQLQERERALKAREERLEQKEQELCVRERLAEDKLARAENLLKNYSLLKERKFLSLASNPELLNLPSSVIKKKVHFSGESKENIMRSENSESQLTSKSKCKDLKKRLHAAQLRAQALSDIEKNYQLKSRQILGMR [K37R] | increasing interaction
